Measurements taken from the supplement of paper PMC9170038.

Test system: MS2 coat protein
Experiment: apparent KD of MS2 coat protein; designed switch direction (-1 OFF switch, 1 ON switch): -1; higher = weaker reporter binding
Method in brief: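 Transcription of designed RNA switches on Illumina chips was done by stalled E. coli RNA polymerase. SNAP-549-labelled MS2 coat protein was then titrated in doubling steps from 0.7 or 1.5 nM to 3 µM, with steps of 0.8–1.5 h at the lowest and 10–20 min at the highest concentration. The per-design median over clusters of curve-fitted normalised fluorescence is reported as apparent KD.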

[1] = input ligand: microRNA oligo, concentration not stated
[2] = Eterna round: R95, input ligand: FMN 200 uM
[3] = Eterna round: R95, input ligand: microRNA oligo, concentration not stated
[4] = Eterna round: R95, input ligand: none

Sequence | apparent KD of MS2 coat protein (input ligand: FMN 200 uM) | apparent KD of MS2 coat protein (input ligand: none) | other results
UAAACAAGCUAAAGAUCCUACAUGAGGAUCACCCAUGUGCUCGUCUUAUAAGGUACUGUGACGAAAGUCACGGUACC [JL TOV1 3.00] (Eterna round: R97, puzzle: Sensor, turn-off variant 1) | 488 nM | 663 nM | –
AUAAAACAUGAGGAUCACCCAUGUCAGGAUAUACGACUCCAACCUAACAGCUUGGACCGUAGAAGGGACAAGGG [Exclusion 1 (MOD2.2 Esqu)] (Eterna round: R97, puzzle: Exclusion 1) | 91.6 nM | 109 nM | –
CCGCUCCGUGUAGGAUAUCGGCGUACCCUGCGCCGAGAAGGACAUGAGGAUCACCCAUGUAUGUUAUUAUCACGCGUGGCGCAC [Design 74] (Eterna round: R96, puzzle: Exclusion NG 1) | 19.8 nM | 20.2 nM | apparent KD of MS2 coat protein [1]: 14.6 nM
CUGAGCAGACGGAGAUCCAACAUGAGGAUCACCCAUGUCUCAAAAGCUUUUUGCUCGUCUUAUCCUCCUCUGUUCAC [Esquitian 1] (Eterna round: R97, puzzle: Sensor, turn-off variant 1) | 26.4 nM | 26 nM | –
UAUUAUCAAGCUAGAUCCCACAUGAGGAUCACCCAUGUGCUCGUCUUAAUUCCAGAAUUACUGGGCUCUCGUCUUAU [JR_STOV1_Sub091] (Eterna round: R97, puzzle: Sensor, turn-off variant 1) | 45.5 nM | 45.1 nM | –
GAAAAGGUAGGAUAUACGAAAAAAAAGGGAAGAAAAAAAACACAUGAGGAUCACCCAUGUAGAAGGACCAAAAG [salish99_ex2_r3_064] (puzzle: Exclusion 2) | – | – | apparent KD of MS2 coat protein [2]: 34.4 nM; apparent KD of MS2 coat protein [3]: 21.6 nM; apparent KD of MS2 coat protein [4]: 20.6 nM
UAUGGUUAAGUCAGGAUAUGCUCGUAGUGGUCUAUGCAGAAGGGACAUGAGGAUCACCCAUGUAUGGUCGUGUU [Ex4 #68] (Eterna round: R97, puzzle: Brourd's mod of Exclusion 4) | 119 nM | 106 nM | –
GCUGGUCGAGGAUAUAUAUGACGUGCUUCGGCACGAAGGUCACAUGAGGAUCACCCAUGUAGAAGGUGACCAGC [E2/9-B1] (Eterna round: R97, puzzle: Exclusion 2) | 110 nM | 42 nM | –
UUUAUAUAGUAAGGAUAUGUAUUAUUUCUAUCAACAGAAGGUACUGACAUGAGGAUCACCCAUGUUUUAGUGUGGGCAUGUAGU [JMF's solution 97] (Eterna round: R96, puzzle: Exclusion NG 1) | – | – | apparent KD of MS2 coat protein [1]: 200 nM
UAUCGGGACUGAGGAUAUUCGUUCGAACACGAAGAAGAAGGUAGUGUCAGGGACAUGAGGAUCACCCAUGUGAACUCAGUCCUA [JL ViennaUCT Erinle mod] (Eterna round: R96, puzzle: Exclusion NG 1) | 38.3 nM | 38.3 nM | apparent KD of MS2 coat protein [1]: 33.7 nM
AAGCCUCAAGUUAGGAUAUUAAUAAGGCAAAUUAUUAAGAAGGGACAUGAGGAUCACCCAUGUAAAAUUCUCAC [Biedredi] (Eterna round: R97, puzzle: Brourd's mod of Exclusion 4) | 140 nM | 57.5 nM | –
AAUAAACUAGGAUAUACAUGAGGAUCACCCAUGUGUCGCCACGUGCUUGCUCACUCGUGUAGAAGGAGUACGGA [Atisan] (puzzle: Exclusion 3) | – | – | apparent KD of MS2 coat protein [3]: 33.4 nM
CUUGUUUAUGUAGGAUAUGCCUGGCGUGCCUUUGCAGAAGGACAUGAGGAUCACCCAUGUACAUGAGGAUCACCCAUGUUCGCA [salish99_ExNG1_r04_102] (Eterna round: R96, puzzle: Exclusion NG 1) | 836 nM | 825 nM | apparent KD of MS2 coat protein [1]: 455 nM
UAUAUAUAGUAAGGAUAUGUAAUUAUUUUAUAGACAGAAGGUACUGACAUGAGGAUCACCCAUGUUUUAGUGUGGGCAUGUAGA [JMF's solution 50] (Eterna round: R96, puzzle: Exclusion NG 1) | – | – | apparent KD of MS2 coat protein [1]: 60.9 nM
AAUAAAGGCCGAGGAUAUCGGAAAGGAAGUGUACGAGAAGGUGGCAAAAGAACAUGAGGAUCACCCAUGUGGGCCGAUCUUCCG [PowerStrip EXNG 1.4] (Eterna round: R96, puzzle: Exclusion NG 1) | 33.3 nM | 29.9 nM | apparent KD of MS2 coat protein [1]: 28.8 nM
CUAAUUCAAGGAUAUACAUGAGGAUCACCCAUGUGAGGGAGUGACAAGUUGUCGGGAUGUAGAAGGUGACCUAG [Eternabot (L2) Solution 36] (Eterna round: R97, puzzle: Exclusion 3) | 417 nM | 411 nM | –
GGUCCUGAUGAUUUUCUAUACAUGAGGAUCACCCAUGUAUGUUUAUUUUGUUUUUCGCUUUUUGGUCGUCAAUAAUA [Honey] (Eterna round: R97, puzzle: Sensor, turn-off variant 1) | 44.1 nM | 41.6 nM | –

Sequence | apparent KD of MS2 coat protein (input ligand: FMN 200 uM) | apparent KD of MS2 coat protein (input ligand: none) | other results
AGAUGUUAAGAGGAUAUCAGCCGAAACCGGCAGUGAGAAGGCUUGACAUGAGGAUCACCCAUGUUUUGCGGUAA [Intebiabe] (Eterna round: R97, puzzle: Exclusion 6) | 300 nM | 35.6 nM | –
AAUAAUCAUGUAGGAUAUGCGUGGCGAAGCUAUGCAGAAGGACAUGAGGAUCACCCAUGUUCUAGCGUCUGCGUACAGAUGCUA [Mat - Exclusion NG 1 - Mod of JL - D79] (Eterna round: R96, puzzle: Exclusion NG 1) | 123 nM | 37.1 nM | apparent KD of MS2 coat protein [1]: 36.6 nM
UAACAAAACUGAGGAUAUCCAUAGCAAAACGUUUGAUCCUCUACAUGAGGAUCACCCAUGUAGCAGGAGAAGGCAGAAACAAAG [Orraenso] (Eterna round: R96, puzzle: Exclusion NG 2) | 28.3 nM | 21.6 nM | apparent KD of MS2 coat protein [1]: 90.1 nM
UAGUACAGAGGAUAUACAUGAGGAUCACCCAUGUGUUUCAGCUAGGAGACUAGCGAAAGUAGAAGGCUGUACUG [salish99_ex3_r4_010] (Eterna round: R97, puzzle: Exclusion 3) | 26.2 nM | 11.4 nM | –
AAACUCUAAGUCAGGAUAUGGCAACGCUAAGGCGACCAGAAGGGACUUGAGGAUCACCCAAGUACCGCUUGUGG [Orardi] (Eterna round: R97, puzzle: Brourd's mod of Exclusion 4) | 409 nM | 42.7 nM | –
CUCGUGCGGCUUUGCUGUGCGGGUACAUGAGGAUCACCCAUGUAGGAUAUGGUGCGCUUUGCGUGCCAGAAGGGCGUGCGUUGG [salish99_ExNG3_r04_011] (Eterna round: R96, puzzle: Exclusion NG 3) | 36.6 nM | 27.3 nM | apparent KD of MS2 coat protein [1]: 27.1 nM
CUCAUUAGUCAGGAUAUCGUGUGGGUAAUUGUACGAGAAGGGACGACAUGAGGAUCACCCAUGUGGUCUUUGGG [JR_Ex6_Sub085] (Eterna round: R97, puzzle: Exclusion 6) | 70.6 nM | 165 nM | –
GUUAAACAUGAGGAUCACCCAUGUAAGGAUAUGCUGCGGUCGCGAUGACGUGACUGCAGCAGAAGGUACAAAUG [Mat - Mod of JL D58] (puzzle: Exclusion 1) | – | – | apparent KD of MS2 coat protein [3]: 69.7 nM
GAAUUAAUUAAUUAAUAAUACAUGAGGAUCACCCAUGUAGAUCCUACAUACAAGCUAAGUAGCUCGUCUUAUAAUUA [Stov1/2-A2] (Eterna round: R97, puzzle: Sensor, turn-off variant 1) | 313 nM | 261 nM | –
AGUACUAUGCGUGCUGACAUGCGUAGUGCAGCAGGUGUAACAUGAGGAUCACCCAUGUCCUCAUUUGCUCGUCUUAA [Mat - Sensor v3 - Turn-off var 2 - D13] (puzzle: Sensor v3, turn-off variant 2) | – | – | apparent KD of MS2 coat protein [2]: 107 nM; apparent KD of MS2 coat protein [3]: 224 nM; apparent KD of MS2 coat protein [4]: 129 nM
AAGUGGUGAGGAUAUAUAUACCAAUCUUCGAGGCACGACCAACAUGAGGAUCACCCAUGUAGAAGGCACCACAA [Eternabot (Original) Solution 39] (Eterna round: R97, puzzle: Exclusion 2) | 32.7 nM | 14.9 nM | –
GCUGUGAAUCAGGAUAUGCGGAUAAAGAGUGCCGCAGAAGGGAUAACAUGAGGAUCACCCAUGUUCCUGCAUGA [Eternabot (L2) Solution 99] (Eterna round: R97, puzzle: Exclusion 6) | 26.5 nM | 20.9 nM | –
UAGAAUCGAGGAUAUACAUGAGGAUCACCCAUGUGUGGCCAUACGGUGUGGUCGUCAGGUAGAAGGCGAUUAUA [Exclusion 3 - Mod of Jieux's Gilly Gone Silly 23 v.2] (puzzle: Exclusion 3) | – | – | apparent KD of MS2 coat protein [3]: 28 nM
CAAAGAUAAGGAUAUUGAAGGUUCGACAUGAGGAUCACCCAUGUUAUGUUGGAAAAGGGACAAGAAGGUAUGAAAC [salish99_ex5_r4_211] (Eterna round: R97, puzzle: Exclusion 5) | 28.2 nM | 35.8 nM | –
AAAUACGCUGAGGAUAUGCGGCGCACAAAAUAAGCAGAAGGCAGCACUUGAGGAUCACCCAAGUGGCCCGAGAA [Enusrees] (Eterna round: R97, puzzle: Exclusion 6) | 15.5 nM | 8 nM | –
GGAUAGUGAGGAUAUCGAUGUUAGGAGGAGGAGGUAGGAGGCGAGAAGGCACAUGAGGAUCACCCAUGUAUGGU [JR_Exclu4_Sub069] (puzzle: Exclusion 4) | – | – | apparent KD of MS2 coat protein [3]: 28.2 nM
UGCAGACGAGGAUAUGAUCAAUAAUACAUGAGGAUCACCCAUGUAAUACUGAUCCAUGGAUCAGAAGGUGUCUGCA [E5/5-B2] (Eterna round: R97, puzzle: Exclusion 5) | 19.5 nM | 17.5 nM | –
